Laboratory results as given in the supplement of paper PMC12667976.
± gives the standard error.

B1: library; numbered along this chain (parent)
chain: MATDAALRRLLRLHRTEIAVAVDSAFPLLHALADHDVVPEDKFQETLHLKEKEGCPQAFHALLSWLLTQDSTAILDFWRVLFKDYNLERYGRLQPILDSFPKDVDLSQPRKGRKPPAVPKALVPPPRLPTKRKASEEARAAAPAALTPRGTASPGSQLKAKPPKKPESSAEQQRLPLGNGIQTMSASVQRAVAMSSGDVPGARGAVEGILIQQVFESGGSKKCIQVGGEFYTPSKFEDSGSGKNKARSSSGPKPLVRAKGAQGAAPGGGEARLGQQGSVPAPLALPSDPQLHQKNEDECAVCRDGGELICCDGCPRAFHLACLSPPLREIPSGTWRCSSCLQATVQEVQPRAEEPRPQEPPVETPLPPGLRSAGEEVRGPPGEPLAGMDTTLVYKHLPAPPSAAPLPGLDSSALHPLLCVGPEGQQNLAPGARCGVCGDGTDVLRCTHCAAAFHWRCHFPAGTSRPGTGLRCRSCSGDVTPAPVEGVLAPSPARLAPGPAKDDTASHEPALHRDDLESLLSEHTFDGILQWAIQSMARPAAPFPS

Variants of: B1
Assay: AIRE transcriptional activation functional score (insulin promoter-GFP; nonsense median 0, synonymous median 1) (normalised score); higher = higher AIRE activity (more reporter activation)
Conditions: with insulin promoter-GFP reporter in HEK293
Protocol: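 Deep mutational scan of full-length human AIRE (codon-optimized cDNA, DT-POPCode NNN libraries over three regions) integrated at a Bxb1 landing pad in HEK293 cells carrying an insulin core promoter-GFP reporter at a Flp-In site. Cells were sorted for the top 10% GFP about 14 days after transfection. Variant frequency log-ratios (select vs non-select, TileSeq) were rescaled so that the nonsense median is 0 and the synonymous median is 1, then averaged over biological replicates.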

| Variant | AIRE transcriptional activation functional score |
| --- | --- |
| R378G | 0.98 ± 0.35 |
| E423Q | 0.981 ± 0.48 |
| C223Q | 0.474 ± 0.13 |
| L341Y | 0.945 ± 0.15 |
| T524R | 0.214 ± 0.12 |
| K161T | 0.898 ± 0.54 |
| L366Q | 0.884 ± 0.12 |
| L495P | 0.262 ± 0.12 |
| S402L | 0.984 ± 0.3 |
| H454E | 0.0475 ± 0.31 |
| S168Y | 1.37 ± 0.18 |
| T463F | 0.0316 ± 0.15 |
| G374H | 0.816 ± 0.16 |
| E137L | 0.822 ± 0.58 |
| Q172L | 1.55 ± 0.33 |
| H30W | -0.339 ± 0.39 |
| L255M | -0.804 ± 0.072 |
| P286A | 0.97 ± 0.35 |
| L63Y | -0.421 ± 0.5 |
| L63K | -0.721 ± 0.11 |
| A500V | 1.04 ± 0.16 |
| A500C | 1.07 ± 0.13 |
| A500D | 1.19 ± 0.13 |
| S339K | 0.757 ± 0.12 |

| Variant | AIRE transcriptional activation functional score |
| --- | --- |
| S339H | 1.27 ± 0.26 |
| S339I | 0.884 ± 0.15 |
| D297A | 0.963 ± 0.28 |
| D297W | 0.671 ± 0.097 |
| D297K | 1.49 ± 0.062 |
| P176R | 1.63 ± 0.56 |
| P331F | 0.62 ± 0.15 |
| Q157H | 1.34 ± 0.23 |
| A403G | 1.26 ± 0.23 |
| A193L | 0.279 ± 0.17 |
| R203S | 0.794 ± 0.14 |
| P416R | 0.68 ± 0.29 |
| I533L | 0.274 ± 0.55 |
| E363H | 1.19 ± 0.069 |
| G150M | 0.246 ± 0.27 |
| G150S | 1.63 ± 0.56 |
| P39V | -1.34 ± 0.49 |
| G486K | 0.91 ± 0.17 |
| P355K | 1.2 ± 0.11 |
| L488I | 0.826 ± 0.27 |
| Q290A | 0.939 ± 0.38 |
| L283N | 0.486 ± 0.18 |
| L283D | 1.01 ± 0.17 |
| L283K | 1.19 ± 0.23 |

| Variant | AIRE transcriptional activation functional score |
| --- | --- |
| P254E | 0.818 ± 0.2 |
| V206D | 0.39 ± 0.25 |
| P162A | 0.796 ± 0.87 |
| P282A | 0.929 ± 0.3 |
| K259R | 0.916 ± 0.19 |
| P407D | 1.67 ± 0.096 |
| F100R | -0.588 ± 0.65 |
| L418K | 0.4 ± 0.059 |
| C457E | 0.0401 ± 0.23 |
| G267D | 0.595 ± 0.051 |
| R473Y | 1.64 ± 0.16 |
| R473T | 1.06 ± 0.22 |
| D312E | 0.977 ± 0.12 |
| D312K | 0.281 ± 0.1 |
| R471I | 1.05 ± 0.38 |
| D503K | 0.372 ± 0.22 |
| F236R | 0.401 ± 0.25 |
| R15A | -0.222 ± 0.32 |
| V443I | 0.968 ± 0.28 |
| A261L | 0.746 ± 0.25 |
| I209W | 0.784 ± 0.11 |
| P430D | 0.951 ± 0.054 |
| P430Y | 1.03 ± 0.16 |
| L49W | -0.0359 ± 0.22 |

| Variant | AIRE transcriptional activation functional score |
| --- | --- |
| P460K | 0.952 ± 0.08 |
| E237V | 1.19 ± 0.12 |
| R465W | 1.18 ± 0.033 |
| L397A | 0.914 ± 0.26 |
| L397N | 0.167 ± 0.41 |
| V420E | 0.728 ± 0.1 |
| K235I | 0.627 ± 0.32 |
| G421S | 0.74 ± 0.44 |
| G421E | 1.65 ± 0.72 |
| G421T | 0.472 ± 0.45 |
| G421D | 1.83 ± 0.15 |
| R132W | 0.538 ± 0.051 |
| A373D | 1.02 ± 0.22 |
| A373T | 1.63 ± 0.12 |
| R316F | 0.43 ± 0.25 |
| R316V | 0.904 ± 0.23 |
| L11I | 0.208 ± 0.44 |
| A141H | 1.12 ± 1.5 |
| L75C | 0.732 ± 0.28 |
| S153V | 0.888 ± 0.29 |
| E51I | -1.54 ± 0.37 |
| L406W | 0.702 ± 0.17 |
| P115R | 0.784 ± 0.41 |
| R92H | 0.298 ± 0.23 |

| Variant | AIRE transcriptional activation functional score |
| --- | --- |
| E298P | 0.696 ± 0.18 |
| P367E | 1.46 ± 0.11 |
| G91P | 0.488 ± 0.62 |
| G260S | 1.12 ± 0.18 |
| P129A | 0.717 ± 0.53 |
| H292C | 0.815 ± 0.12 |
| H292D | 0.892 ± 0.31 |
| A25Y | -0.882 ± 0.51 |
| A25D | 0.297 ± 0.072 |
| H523N | 1.28 ± 0.23 |
| H523W | -0.242 ± 0.14 |
| H523T | 1.37 ± 0.23 |
| P490C | 1.26 ± 0.12 |
| P490I | 1.17 ± 0.38 |
| K114C | 1.06 ± 0.095 |
| I330F | 0.831 ± 0.17 |
| A413G | 1.12 ± 0.37 |
| L66G | -0.202 ± 0.45 |
| L66K | -0.126 ± 0.13 |
| D41P | 0.148 ± 0.081 |
| D41N | 1.79 ± 0.15 |
| Q213L | 0.173 ± 0.27 |
| A152H | 0.789 ± 0.29 |
| I181H | -0.417 ± 0.21 |

| Variant | AIRE transcriptional activation functional score |
| --- | --- |
| N427C | 1.1 ± 0.23 |
| N179C | 1.26 ± 0.56 |
| N179S | 0.818 ± 0.51 |
| C314K | 1 ± 0.12 |
| Q173C | 1.51 ± 0.6 |
| L392I | 1.7 ± 0.47 |
| S287P | 0.464 ± 0.031 |
| S278D | 0.859 ± 0.21 |
| R456L | 1.04 ± 0.22 |
| A452G | 0.775 ± 0.21 |
| A452V | 0.915 ± 0.25 |
| T3S | 0.972 ± 0.75 |
| T3A | 1.09 ± 0.56 |
| L93Q | -0.189 ± 0.28 |
| F59M | 0.656 ± 0.15 |
| R303H | 1.12 ± 0.21 |
| R303M | 1.28 ± 0.062 |
| R303K | 1.13 ± 0.13 |
| R303V | 1.16 ± 0.22 |
| C449R | 0.252 ± 0.31 |
| C449P | 0.244 ± 0.13 |
| V188C | 0.891 ± 0.073 |
| T390L | 1.23 ± 0.45 |
| T441D | 0.0827 ± 0.34 |

| Variant | AIRE transcriptional activation functional score |
| --- | --- |
| W531D | 0.357 ± 0.3 |
| Q212G | 0.371 ± 0.2 |
| E17Y | -0.411 ± 0.17 |
| E17T | 0.383 ± 0.71 |
| E17H | 0.241 ± 1 |
| A202M | 1.19 ± 0.086 |
| S338E | 0.862 ± 0.16 |
| K221H | 0.705 ± 0.077 |
| K245Q | 0.887 ± 0.36 |
| H396L | 1.69 ± 0.1 |
| I74K | 0.384 ± 0.13 |
| I74C | 0.295 ± 0.23 |
| D198H | 0.856 ± 0.32 |
| D198K | 0.684 ± 0.19 |
| K83S | 0.122 ± 0.21 |
| K83G | -0.0227 ± 0.29 |
| A134N | 1.63 ± 0.051 |
| A134H | 0.548 ± 0.16 |
| A321G | 1.21 ± 0.12 |
| A321D | 0.763 ± 0.12 |
| P350K | 0.93 ± 0.039 |
| P350Y | 0.767 ± 0.26 |
| V20Q | -0.25 ± 0.26 |
